Measured values taken from the supplement of paper PMC9112550, “Optimization of the antimicrobial peptide Bac7 by deep mutational scanning” (BMC Biology, 2022).

What follows are sequences tested on Escherichia coli TOP10 (assay: shrunken log2 fold change of peptide-encoding DNA abundance (4.5 h post-induction vs induction); higher = less antimicrobial activity (less host growth inhibition)). Conditions: time post-induction: 4.5 h; library: site-saturation at positions 5, 18, 19, 20.
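Further: peptides expressed intracellularly from a pBAD plasmid library in pooled LB shake-flask culture, induced with 0.3% L-arabinose, DNA abundance read by NGS, three biological replicates, DESeq2 with apeglm shrinkage.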

Sequence | shrunken log2 fold change
RRIRPRPPRLPRPRPRPPKPPRP | 0.0495
RRIRARPPRLPRPRPRPWTGPRP | 0.00192
RRIRTRPPRLPRPRPRPVMTPRP | -0.14
RRIRDRPPRLPRPRPRPHLDPRP | -0.131
RRIRWRPPRLPRPRPRPVCYPRP | 0.028
RRIRYRPPRLPRPRPRPYRTPRP | -0.588
RRIRQRPPRLPRPRPRPSYDPRP | -0.251
RRIRCRPPRLPRPRPRPEKQPRP | -0.0123
RRIRFRPPRLPRPRPRPNFDPRP | -0.181
RRIRGRPPRLPRPRPRPLISPRP | 0.364
RRIRHRPPRLPRPRPRPTVRPRP | 0.165
RRIRKRPPRLPRPRPRPAAGPRP | 0.896
RRIRKRPPRLPRPRPRPPIWPRP | 0.106
RRIRMRPPRLPRPRPRPNGNPRP | 0.261
RRIRPRPPRLPRPRPRPHGFPRP | -0.21
RRIRQRPPRLPRPRPRPQFIPRP | -0.0627
RRIRDRPPRLPRPRPRPDVIPRP | 0.00273
RRIRGRPPRLPRPRPRPNDPPRP | -0.0529
RRIRLRPPRLPRPRPRPIQCPRP | -0.301
RRIRDRPPRLPRPRPRPWQIPRP | 0.0319
RRIRTRPPRLPRPRPRPTALPRP | 0.0207
RRIRVRPPRLPRPRPRPLQLPRP | -0.091

Sequence | shrunken log2 fold change
RRIRMRPPRLPRPRPRPGYFPRP | 0.0909
RRIRGRPPRLPRPRPRPICIPRP | 0.176
RRIRYRPPRLPRPRPRPTAPPRP | -0.25
RRIRERPPRLPRPRPRPQWSPRP | 0.0836
RRIRGRPPRLPRPRPRPQNPPRP | 0.0251
RRIRDRPPRLPRPRPRPKPVPRP | 0.00913
RRIRERPPRLPRPRPRPVERPRP | -0.00844
RRIRRRPPRLPRPRPRPKKMPRP | 0.318
RRIRPRPPRLPRPRPRPPECPRP | 0.338
RRIRFRPPRLPRPRPRPFICPRP | -0.65
RRIRERPPRLPRPRPRPTDPPRP | -0.152
RRIRGRPPRLPRPRPRPGGEPRP | 1.24
RRIRCRPPRLPRPRPRPHSGPRP | 0.00506
RRIRRRPPRLPRPRPRPRCDPRP | 0.306
RRIRLRPPRLPRPRPRPINPPRP | 0.132
RRIRSRPPRLPRPRPRPGLCPRP | 0.238
RRIRVRPPRLPRPRPRPLNHPRP | -0.17
RRIRCRPPRLPRPRPRPVYVPRP | -0.483
RRIRVRPPRLPRPRPRPAVVPRP | 0.213
RRIRRRPPRLPRPRPRPPCPPRP | 0.641
RRIRYRPPRLPRPRPRPICKPRP | -0.193
RRIRLRPPRLPRPRPRPSFIPRP | -0.578

Sequence | shrunken log2 fold change
RRIRHRPPRLPRPRPRPRWIPRP | -0.108
RRIRGRPPRLPRPRPRPECAPRP | 2.14
RRIRMRPPRLPRPRPRPAQYPRP | 0.377
RRIRDRPPRLPRPRPRPEWMPRP | 0.764
RRIRQRPPRLPRPRPRPPTNPRP | 0.201
RRIRFRPPRLPRPRPRPYVQPRP | -0.0133
RRIRGRPPRLPRPRPRPFHHPRP | -0.126
RRIRDRPPRLPRPRPRPTQWPRP | 0.0594
RRIRCRPPRLPRPRPRPIHVPRP | -0.377
RRIRRRPPRLPRPRPRPTMLPRP | 0.0234
RRIRDRPPRLPRPRPRPRQSPRP | -0.00504
RRIRRRPPRLPRPRPRPDPRPRP | 0.12
RRIRFRPPRLPRPRPRPPGCPRP | 0.453
RRIRHRPPRLPRPRPRPFRFPRP | -0.132
RRIRNRPPRLPRPRPRPQIEPRP | -0.251
RRIRARPPRLPRPRPRPAERPRP | 0.301
RRIRTRPPRLPRPRPRPFPAPRP | 0.299
RRIRCRPPRLPRPRPRPVELPRP | 0.103
RRIRDRPPRLPRPRPRPMYQPRP | -0.075
RRIRTRPPRLPRPRPRPLSIPRP | -0.487
RRIRVRPPRLPRPRPRPAFMPRP | -0.352
RRIRVRPPRLPRPRPRPHFGPRP | -0.0294

Sequence | shrunken log2 fold change
RRIRGRPPRLPRPRPRPVGKPRP | 0.646
RRIRFRPPRLPRPRPRPHSCPRP | -0.249
RRIRFRPPRLPRPRPRPGVPPRP | 0.0248
RRIRVRPPRLPRPRPRPLCYPRP | -0.4
RRIRFRPPRLPRPRPRPSMPPRP | -0.331
RRIRRRPPRLPRPRPRPQCGPRP | 0.317
RRIRLRPPRLPRPRPRPKELPRP | 0.0165
RRIRPRPPRLPRPRPRPTWVPRP | 0.0694
RRIRLRPPRLPRPRPRPVMQPRP | 0.00383
RRIRCRPPRLPRPRPRPNWTPRP | -0.0217
RRIRHRPPRLPRPRPRPCFDPRP | -0.00612
RRIRERPPRLPRPRPRPMKAPRP | -0.00245
RRIRLRPPRLPRPRPRPNNAPRP | -0.221
RRIRRRPPRLPRPRPRPGLIPRP | 0.238
RRIRTRPPRLPRPRPRPFYTPRP | -0.373
RRIRRRPPRLPRPRPRPPRWPRP | 0.986
RRIRNRPPRLPRPRPRPMWAPRP | -0.0203
RRIRKRPPRLPRPRPRPWHNPRP | -0.124
RRIRERPPRLPRPRPRPCSCPRP | -0.00783
RRIRGRPPRLPRPRPRPLETPRP | 0.985
RRIRWRPPRLPRPRPRPWHIPRP | 0.106
RRIRARPPRLPRPRPRPGMPPRP | 0.128

Sequence | shrunken log2 fold change
RRIRTRPPRLPRPRPRPTHCPRP | 0.0158
RRIRWRPPRLPRPRPRPWVVPRP | 1.61
RRIRTRPPRLPRPRPRPGYYPRP | -0.442
RRIRGRPPRLPRPRPRPCWQPRP | 0.153
RRIRPRPPRLPRPRPRPRDIPRP | -0.191
RRIRSRPPRLPRPRPRPQQEPRP | -0.0806
RRIRKRPPRLPRPRPRPRVFPRP | 0.701
RRIRVRPPRLPRPRPRPINAPRP | -0.174
RRIRKRPPRLPRPRPRPVVLPRP | -0.0253
RRIRERPPRLPRPRPRPTHHPRP | -0.0607
RRIRFRPPRLPRPRPRPNVEPRP | 0.0199
RRIRRRPPRLPRPRPRPYRVPRP | -0.0172
RRIRYRPPRLPRPRPRPCWYPRP | -1.03
RRIRARPPRLPRPRPRPQEYPRP | 0.0643
RRIRNRPPRLPRPRPRPFDGPRP | -0.0509
RRIRDRPPRLPRPRPRPTMVPRP | 0.028
RRIRSRPPRLPRPRPRPSVQPRP | -0.0563
RRIRFRPPRLPRPRPRPVCFPRP | -0.151
RRIRKRPPRLPRPRPRPMCEPRP | 0.12
RRIRYRPPRLPRPRPRPEFFPRP | -0.0803
RRIRFRPPRLPRPRPRPKDCPRP | 0.104
